# Test results published in CN113980129A (DONGDA BIOTECHNOLOGY SUZHOU CO LTD, dated 2022).
# Numbering of substitutions follows the chain as printed. Names may count otherwise.
# B1: Control-3C6 (antibody, V domains shown)
# VH: EVQLVQSGAEVKKPGASVKISCKASGYTFTDYNMDWVKQAPGQRLEWIGDINPHNGGPIYNQKFTGRATLTVDKSASTAYMELSSLRSEDTAVYYCARGELGHWYFDVWGQGTTVTVSS
# VL: DIVLTQSPASLALSPGERATLSCRASKSVSTSGYSYIHWYQQKPGQAPRLLIYLASNLDSGVPARFSGSGSGTDFTLTISSLEEEDFATYYCQHSRDLPPTFGQGTKLEIKR
# B2: hu10C2-hIgG4 (antibody, V domains shown)
# VH: QVHLVQSGAEVKKPGSSVKVSCKAPGYTFSSYWIEWVRQAPGQGLEWIGEILPGSGNTNYNEKFKGRATFTADTSTSTAYMELSSLRSEDTAVYYCASPSSTVDYAMDYWGQGTLVTVSS
# VL: EIVLTQSPGTLSLSPGERATLSCRASRSVSTSGYNYMHWYQQKPGQAPRLLIFLASNLESGIPDRFSGSGSGTDFTLTISRLEPEDFAVYYCQHSRELPYTFGQGTKLEIK
# notes: also called 10C2人源化抗体
# B3: hu16E12-hIgG4 (antibody, V domains shown)
# VH: QVQLVQSGAEVKKPGASVKVSCKASGYTFTSYYMYWVRQAPGQGLEWIGEINPSNGGTDFNEKFKNRVTMTVDTSISTAYMELSRLRSDDTAVYYCTREEIHYGYDKGFAYWGQGTLVTVSS
# VL: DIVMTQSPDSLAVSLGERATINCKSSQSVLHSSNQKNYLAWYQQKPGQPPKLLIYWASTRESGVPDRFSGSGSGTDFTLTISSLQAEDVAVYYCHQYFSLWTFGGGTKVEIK
# notes: also called 16E12人源化抗体; hu16E12 Wild Type
# B4: hu16E12 L94H (antibody, V domains shown)
# VH: B3 VH
# VL: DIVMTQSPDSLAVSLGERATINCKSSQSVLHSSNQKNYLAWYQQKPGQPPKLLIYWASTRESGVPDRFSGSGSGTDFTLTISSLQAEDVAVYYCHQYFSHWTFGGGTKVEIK
# B5: hu16E12 N54S (antibody, V domains shown)
# VH: B3 VH with N55S
# VL: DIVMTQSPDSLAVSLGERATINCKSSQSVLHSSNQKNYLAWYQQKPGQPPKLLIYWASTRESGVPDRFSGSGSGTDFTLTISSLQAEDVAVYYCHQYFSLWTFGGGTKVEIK
# notes: CDR mutant of hu16E12 (IgG4); placed on VH (CDR2, probably Kabat) by inference
# B6: hu16E12 E61Q N65G (antibody, V domains shown)
# VH: B3 VH with E62Q, N66G
# VL: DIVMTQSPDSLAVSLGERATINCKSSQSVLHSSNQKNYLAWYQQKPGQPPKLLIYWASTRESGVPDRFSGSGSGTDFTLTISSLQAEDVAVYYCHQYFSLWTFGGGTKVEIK
# notes: as for B5
# B7: hu16E12 K64Q N65G (antibody, V domains shown)
# VH: B3 VH with K65Q, N66G
# VL: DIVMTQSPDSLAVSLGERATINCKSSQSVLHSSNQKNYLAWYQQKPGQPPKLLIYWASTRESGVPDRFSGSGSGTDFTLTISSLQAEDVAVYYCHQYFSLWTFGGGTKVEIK
# notes: CDR mutant of hu16E12 (IgG4); placed on VH (CDR2, probably Kabat numbering) by inference
# B8: hu16E12 N65G (antibody, V domains shown)
# VH: B3 VH with N66G
# VL: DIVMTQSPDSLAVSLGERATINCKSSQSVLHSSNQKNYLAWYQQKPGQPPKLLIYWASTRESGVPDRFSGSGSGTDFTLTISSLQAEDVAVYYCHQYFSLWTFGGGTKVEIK
# notes: as for B5
# B9: hu16E12 G55V (antibody, V domains shown)
# VH: B3 VH with G56V
# VL: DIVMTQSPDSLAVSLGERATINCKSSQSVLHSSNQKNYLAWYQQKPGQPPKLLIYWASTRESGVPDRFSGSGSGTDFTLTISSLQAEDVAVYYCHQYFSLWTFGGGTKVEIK
# notes: as for B5
# B10: hu16E12 N60A N65G (antibody, V domains shown)
# VH: B3 VH with N61A, N66G
# VL: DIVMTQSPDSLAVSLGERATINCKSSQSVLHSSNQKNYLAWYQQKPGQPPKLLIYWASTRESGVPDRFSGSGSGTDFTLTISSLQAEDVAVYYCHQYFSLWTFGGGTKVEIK
# notes: as for B5
# B11: hu16E12 G55A (antibody, V domains shown)
# VH: B3 VH with G56A
# VL: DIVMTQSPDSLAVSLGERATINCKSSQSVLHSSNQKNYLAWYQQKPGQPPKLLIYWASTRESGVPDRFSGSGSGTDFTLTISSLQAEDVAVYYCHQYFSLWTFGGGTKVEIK
# notes: as for B5
# B12: hu16E12 N54Q (antibody, V domains shown)
# VH: B3 VH with N55Q
# VL: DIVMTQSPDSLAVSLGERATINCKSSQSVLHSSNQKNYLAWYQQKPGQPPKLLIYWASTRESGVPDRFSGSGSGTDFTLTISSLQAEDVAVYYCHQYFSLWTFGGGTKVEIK
# notes: as for B5
# B13: 16F3 (antibody, V domains shown)
# VH: QVQLQQSGAELVRPGVSVKISCKGSGDTFTDYAMHWVKQSHAKSLEWIGVISTYYGDVSYNQKFKGKATMTVDKSSSTAYMELVRLTSEDSAIYYCARGYYDYAWFAYWGQGTLVTVSA
# VL: QIVLTQSPAIMSASPGEKVTMTCSASSSLNYMHWYQQKSGTSPKRWIYDTSKLASGVPARFSGSGSGTSYSLTISSMEAEDAATYYCQQWSSNPLTFGAGTKLELK
# notes: Mouse hybridoma antibody purified on Protein A
# B14: 4A2 (antibody, V domains shown)
# VH: QVQLQQSGGELVRPGVSVKISCKGSGYKITDYAMHWVKQSHAESLEWIGVISSYYGDTSYNQKFKGKATMTVDISSSTAYMEIARLTSEDSAIYYCAIGLWDVGYFDYWGQGTTLTVSS
# VL: B13 VL with L29V, N30S, H33Q, S91V, N93K, P94A, L95V, A99S, L105I
# notes: as for B13
# B15: 26A6 (antibody, V domains shown)
# VH: QIQLVQSGPELKKPGETVKISCKASGYTFTNYGMNWVKQAPGKGLKWMGWINTNTGETTYAEEFKGRFAFSLEASVSTAHLQINNLKNEDTATYFCAKEDFYGMDYWGQGSSVTVSS
# VL: NIVMTQTPKFLLVSAGDRVTMTCKASQSVSNDVVWYQQKPGQSPKLLIYYASNRYTGVPDRFIGSGYGTEFTFTISTVQAEDLAVYFCQQDYSFPYTFGGGTKLEIK
# notes: as for B13
# B16: 14F6 (antibody, V domains shown)
# VH: EVKLEESGGGLVQPGGSMKLSCVASGFTFSKYWMNWVRQSPEKGLEWVAEIRLKSDNYATQYAESVKGRFTMSRDDSKSSVYLQMKNLRAEDSGIYYCTKEGYDGYAMDYWGQGTSVTVSS
# VL: B15 VL with N1R, M21I, S28N, V29I, S30N, I63T, E70D, S93I, F94S, Y96W
# notes: as for B13
# B17: 10C2 (antibody, V domains shown)
# VH: QVHLQQSGTELMKPGASVKISCKAPGYTFSSYWIEWVKQRPGHGLEWIGEILPGSGNTNYNEKFKGKATFTADTSSNTAYMQLSSLTSEDSAVYYCASPSSTVDYAMDYWGQGTSVTVSS
# VL: DIVLTQSPASLGVSLGQRATISCRASRSVSTSGYNYMHWYQQKPGQPPKLLIFLASNLESGVPARFSGSGSGTDFTLNIHPVEEEDAATYHCQHSRELPYTFGGGTKLEIK
# notes: Mouse hybridoma antibody purified on Protein A; also called 鼠源10C2
# B18: 16E12 (antibody, V domains shown)
# VH: QVQLQQSGAELVKPGASVKLSCKASGYTFTSYYMYWVKQRPGQGLEWIGEINPSNGGTDFNEKFKNKATLTVDKSSSTAYMQLSSLTSEDSAVYYCTREEIHYGYDKGFAYWGQGTLVTVSA
# VL: NIMMTQSPSSLAVSAGEKVTMSCKSSQSVLHSSNQKNYLAWYQQKPGQSPKLLIYWASTRESGVPDRFTGSGSGTDFTLTISSIQAEDLAVYYCHQYFSLWTFGGGTKLEIK
# notes: Mouse hybridoma antibody purified on Protein A; also called 鼠源16E12
# B19: 18B6 (antibody, V domains shown)
# VH: B18 VH with S31N, M34I, V37M, D59N, N66S, Y95F, T97S
# VL: B18 VL with S10Y, H31N, T59I, I84V, Y93F, L100S, K108R
# notes: as for B13
# B20: 1D12 (antibody, V domains shown)
# VH: EVQLQQFGAELVKPGAAVKISCKASGYTFTDYNMDWVRQSHGKSLEWIGEINPNYDSTRYNQKFKGKATLTVDKSSSTAYMELRSLTSEDTAVYYCARSDYYAMDYWGQGTSVTVSS
# VL: SIVMTQTPSFLLVSAGDRVTITCKASQSVSNDVAWYQQKPGQSPKLLIYYASNRFTGVPDRFTGSGFGTDFTFTISTVQTGDLAVYFCRQDYISPYTFGGGTKLEIK
# notes: as for B13
# B21: 14E1 (antibody, V domains shown)
# VH: EVQLQQSGPVLVKPGASVKMSCKASGYTFTDYYMNWVKQSHGKSLEWIGVFNPYNGGTVYNQKFKGKATLTVDKSSSTAYMELSSLTSEDSAVYYCAREDYGSYYVVFDYWGQGTTLTVSS
# VL: QIVLSQSPAILSASPGEKVTMTCRASSSVSYMHWYQQKPGSSPKPWIYATSNLASGVPARFSGSGSGTSYSLTISRVEAEDAATYYCQHWSSNPLTFGAGTKLELK
# notes: as for B13
# B22: 6B9 (antibody, V domains shown)
# VH: EVQLVESGGGSVKPGGSLKLSCAASGFTFSNYAMSWVRQSPEKRLEWVAEISNGGSYTYYPDTVTGRFTISRDNAKNTLYLEMSSLRSEDTAMYYCVRHYDGYYGGILDFAMDYWGQGTSVTVSS
# VL: DIQMTQSPSSLSASLGGKVTITCKASQDINKCIAWYQHKPGKGPRLLIHYTSTLQPGIPSRFSGSGSGRDYSFTISNLEPEDIATYYCLQYDYLHTFGGGTKLEIK
# notes: as for B13
# Biological target: T1, 重组人IL-11 (recombinant human interleukin-11) (human, UniProt P20809 22-199)
# T1 sequence (looked up): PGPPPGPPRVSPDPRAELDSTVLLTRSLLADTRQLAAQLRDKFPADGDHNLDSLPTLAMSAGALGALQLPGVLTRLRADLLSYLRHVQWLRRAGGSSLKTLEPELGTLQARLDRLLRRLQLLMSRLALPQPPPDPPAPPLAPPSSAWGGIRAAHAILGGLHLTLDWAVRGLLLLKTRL
# Assay: cell-based or functional assay
row,Binder,"IC50, STAT3 luciferase reporter in DLD1-IL-11R-pSTAT3-Luc cells"
1,B1,178 ng/mL
2,B2,4.86 ng/mL
3,B3,1.16 ng/mL

# Biological target: T1, 重组人IL-11 (recombinant human …)
# Assay: SPR (Biacore), antibody captured on anti-human IgG CM5 chip, IL-11 as analyte
Binder,Kd,koff,kon
B2,0.0149 nM,2.2e-05 s⁻¹,1.47e+06 M⁻¹ s⁻¹
B3,0.0158 nM,4.66e-05 s⁻¹,2.96e+06 M⁻¹ s⁻¹
B4,0.00187 nM,3.91e-06 s⁻¹,2.09e+06 M⁻¹ s⁻¹
B5,0.0245 nM,7e-05 s⁻¹,2.86e+06 M⁻¹ s⁻¹
B6,0.0363 nM,8.54e-05 s⁻¹,2.35e+06 M⁻¹ s⁻¹
B7,0.0157 nM,5.76e-05 s⁻¹,3.68e+06 M⁻¹ s⁻¹
B8,0.0189 nM,5.25e-05 s⁻¹,2.78e+06 M⁻¹ s⁻¹
B9,0.00387 nM,9.32e-06 s⁻¹,2.41e+06 M⁻¹ s⁻¹
B10,0.0268 nM,7.51e-05 s⁻¹,2.81e+06 M⁻¹ s⁻¹
B11,0.012 nM,3.56e-05 s⁻¹,2.96e+06 M⁻¹ s⁻¹
B12,0.0363 nM,0.000101 s⁻¹,2.78e+06 M⁻¹ s⁻¹

# Biological target: T1, 重组人IL-11 (recombinant human …)
# Assay: ELISA, IL-11 coated on plate
row,Binder,EC50
1,B1,22.5 µg/mL
2,B2,0.0659 µg/mL
3,B3,0.0624 µg/mL

# Biological target: T1, 重组人IL-11 (recombinant human …)
# Assay: FACS, blocking of IL-11-biotin binding to 293T-IL-11Rα/gp130 cells
row,Binder,IC50
1,B1,4.19 µg/mL
2,B2,0.0811 µg/mL
3,B3,0.0679 µg/mL

# Biological target: T1, 重组人IL-11 (recombinant human …)
# Assay: ELISA, IL-11 coated on plate
# Remark: another data set of the same source
row,Binder,binding result
1,B13,binds
2,B14,binds
3,B15,binds
4,B16,binds
5,B17,binds
6,B18,binds
7,B19,binds
8,B20,binds
9,B21,binds
10,B22,binds
